Source: the RNAGym collection of RNA variant scans (doi:10.1021/acssynbio.7b00057)

B1: Pistol ribozyme (parent)
chain: GGGUCGUUGUUCCAUAAUCGCGUGGAUAUGGCACGCAAGUUUCUACCGGGCACCGUAAAUGUCCGACUGGAGCCGUUCGGGCGGCUAUAAACAGACCUCAGGCCCGAAGCGUGGCGGCACCUGCCGCCGGUGGUAAAAAAGAUCGGAAGAGCACACGUCU

Variants of: B1
Assay: aptazyme ON/OFF ratio, guanine; higher = stronger switching; co-transcriptional cleavage with and without guanine

Variant	aptazyme ON/OFF ratio
U7C U8A G9C U10G U11C C12G	1.18
U7C U8A G9C U10G U11C C12A	1.29
U7C U8A G9C U10G U11C C12U	1.24
U7C U8A G9U U11G C12A C13A	1.12
U7C U8A G9U U11G C12A C13G	1.16
U7C U8A G9U U11G C12A C13U	1.2
U7C U8A G9U U10C C12G	1.22
U7C U8A G9U U10C C12U	1.13
U7C U8A G9U U10C C12A	1.14
U7C U8A G9U U10A U11A	1.38
U7C U8A G9U U10A U11G	1.36
U7C U8A G9U U10A U11C	1.05
U7C U8A G9U U10G U11C C12U C13U	1.22
U7C U8A G9U U10G U11C C12U C13G	1.14
U7C U8A G9U U10G U11C C12U C13A	1.16
U7C U8A G9C U11A C12A C13A	1.11
U7C U8A G9C U11A C12A C13G	1.08
U7C U8A G9C U11A C12A C13U	1.15
U7C U8A G9C U11G C13U	1.15
U7C U8A G9C U11G C13A	1.07
U7C U8A G9C U11G C13G	1.05
U7C U8A G9U U10G U11C C12A C13U	1.27
U7C U8A G9U U10G U11C C12A C13A	1.18
U7C U8A G9U U10G U11C C12A C13G	1.16

Variant	aptazyme ON/OFF ratio
U7C U8A G9C U10G U11G C12U C13A	1.12
U7C U8A G9C U10G U11G C12U C13U	1.09
U7C U8A G9C U10G U11G C12U C13G	1.1
U7C U8A G9C U11A C13G	1.06
U7C U8A G9C U11A C13A	1.11
U7C U8A G9C U11A C13U	1.13
U7C U8A G9U U10A	1.16
U7C U8A G9U U10G	1.26
U7C U8A G9U U10C	3.35
U7C U8A G9U U10C U11G C12G C13G	1.08
U7C U8A G9U U10C U11G C12G C13A	1.16
U7C U8A G9U U10C U11G C12G C13U	1.11
U7C U8A G9U U10C U11G C12U	1.21
U7C U8A G9U U10C U11G C12A	1.07
U7C U8A G9U U10C U11G C12G	1.11
U7C U8A G9U U10G U11C C13U	1.05
U7C U8A G9U U10G U11C C13G	1.07
U7C U8A G9U U10G U11C C13A	1.2
U7C U8A G9U U11A	1.08
U7C U8A G9U U11C	1.07
U7C U8A G9U U11G	1.21
U7C U8A G9U U11A C12A C13A	1.08
U7C U8A G9U U11A C12A C13G	1.18
U7C U8A G9U U11A C12A C13U	1.41

Variant	aptazyme ON/OFF ratio
U7C U8A G9U U10A C12A	1.19
U7C U8A G9U U10A C12U	1.19
U7C U8A G9U U10A C12G	1.18
U7C U8A G9U U10C U11C	1.01
U7C U8A G9U U10C U11A	1.27
U7C U8A G9U U10C U11G	1.06
U7C U8A G9U U11G C12G	1.15
U7C U8A G9U U11G C12A	1.09
U7C U8A G9U U11G C12U	1.4
U7C U8A G9U U10C C12U C13A	1.12
U7C U8A G9U U10C C12U C13G	1.12
U7C U8A G9U U10C C12U C13U	1.13
U7C U8A G9U U11A C12U	1.06
U7C U8A G9U U11A C12G	1.14
U7C U8A G9U U11A C12A	1.19
U7C U8A G9U U10C U11C C13U	1.01
U7C U8A G9U U10C U11C C13A	1.02
U7C U8A G9U U10C U11C C13G	1.03
U7C U8A G9C U11A C12U C13A	1.16
U7C U8A G9C U11A C12U C13U	1.2
U7C U8A G9C U11A C12U C13G	1.1
U7C U8A G9C U11G C12G C13G	1.07
U7C U8A G9C U11G C12G C13U	1.05
U7C U8A G9C U11G C12G C13A	1.1

Variant	aptazyme ON/OFF ratio
U7C U8A G9U U10A U11G C12A C13A	1.09
U7C U8A G9U U10A U11G C12A C13G	1.15
U7C U8A G9U U10A U11G C12A C13U	1.14
U7C U8A G9C U10G U11C C13A	1.39
U7C U8A G9C U10G U11C C13G	1.05
U7C U8A G9C U10G U11C C13U	1.09
U7C U8A G9C U11C C13A	1.14
U7C U8A G9C U11C C13G	1.04
U7C U8A G9C U11C C13U	1.05
U7C U8A G9U U10A U11A C12U C13G	1.21
U7C U8A G9U U10A U11A C12U C13A	1.2
U7C U8A G9U U10A U11A C12U C13U	1.36
U7C U8A G9U U10G U11A C12G C13G	1.22
U7C U8A G9U U10G U11A C12G C13U	1.2
U7C U8A G9U U10G U11A C12G C13A	1.21
U7C U8A G9U U10A C12G C13A	1.12
U7C U8A G9U U10A C12G C13U	1.25
U7C U8A G9U U10A C12G C13G	1.17
U7C U8A G9U U10G C12A C13G	1.13
U7C U8A G9U U10G C12A C13U	1.17
U7C U8A G9U U10G C12A C13A	1.19
U7C U8A G9U U10C C13A	1.05
U7C U8A G9U U10C C13U	1.8
U7C U8A G9U U10C C13G	1.07

Variant	aptazyme ON/OFF ratio
U7C U8A G9U U10C U11C C12G C13U	1.07
U7C U8A G9U U10C U11C C12G C13A	1.09
U7C U8A G9U U10C U11C C12G C13G	1.11
U7C U8A G9U U11C C12A C13A	1.1
U7C U8A G9U U11C C12A C13U	1.2
U7C U8A G9U U11C C12A C13G	1.07
U7C U8A G9U U11G C12G C13G	1.16
U7C U8A G9U U11G C12G C13U	1.14
U7C U8A G9U U11G C12G C13A	1.14
U7C U8A G9U U11A C12U C13U	1.22
U7C U8A G9U U11A C12U C13G	1.23
U7C U8A G9U U11A C12U C13A	1.16
U7C U8A G9U U11G C12U C13A	1.22
U7C U8A G9U U11G C12U C13U	1.24
U7C U8A G9U U11G C12U C13G	1.17
U7C U8A G9U U10C U11C C12A C13A	1.06
U7C U8A G9U U10C U11C C12A C13G	1.29
U7C U8A G9U U10C U11C C12A C13U	1.12
U7C U8A G9U U10G U11A C12U C13G	1.11
U7C U8A G9U U10G U11A C12U C13U	1.1
U7C U8A G9U U10G U11A C12U C13A	1.12
U7C U8A G9U U10A U11G C12G C13U	1.12
U7C U8A G9U U10A U11G C12G C13A	1.15
U7C U8A G9U U10A U11G C12G C13G	1.26

Variant	aptazyme ON/OFF ratio
U7C U8A G9U U10C U11A C13A	1.15
U7C U8A G9U U10C U11A C13G	1.07
U7C U8A G9U U10C U11A C13U	1.17
U7C U8A G9U C12A C13A	1.14
U7C U8A G9U C12A C13U	1.15
U7C U8A G9U C12A C13G	1.18
U7C U8A G9U	1.59
U7C U8A G9U U10A U11A C12G C13A	1.08
U7C U8A G9U U10A U11A C12G C13U	1.28
U7C U8A G9U U10A U11A C12G C13G	1.2
U7C U8A G9U U10A C13A	1.2
U7C U8A G9U U10A C13U	1.19
U7C U8A G9U U10A C13G	1.05
U7C U8A G9U U10G C12A	1.12
U7C U8A G9U U10G C12G	1.08
U7C U8A G9U U10G C12U	1.41
U7C U8A G9U U11C C13A	1.04
U7C U8A G9U U11C C13G	1.03
U7C U8A G9U U11C C13U	1.03
U7C U8A G9U U11A C12G C13A	1.17
U7C U8A G9U U11A C12G C13G	1.15
U7C U8A G9U U11A C12G C13U	1.15
U7C U8A G9U U10C U11A C12U C13A	1.11
U7C U8A G9U U10C U11A C12U C13U	1.15

Variant	aptazyme ON/OFF ratio
U7C U8A G9U U10C U11A C12U C13G	1.09
U7C U8A G9U U10C C12A C13A	1.13
U7C U8A G9U U10C C12A C13U	1.15
U7C U8A G9U U10C C12A C13G	1.15
U7C U8A G9U U10A U11A C12A C13G	1.18
U7C U8A G9U U10A U11A C12A C13U	1.19
U7C U8A G9U U10A U11A C12A C13A	1.13
U7C U8A G9C U11A	1.05
U7C U8A G9C U11G	1.13
U7C U8A G9C U11C	1.04
U7C U8A G9U U10A U11C C12U C13G	1.13
U7C U8A G9U U10A U11C C12U C13U	1.21
U7C U8A G9U U10A U11C C12U C13A	1.14
U7C U8A G9C U11C C12A C13G	1.07
U7C U8A G9C U11C C12A C13A	1.04
U7C U8A G9C U11C C12A C13U	1.08
U7C U8A G9U U10A U11G C12U C13A	1.16
U7C U8A G9U U10A U11G C12U C13U	1.31
U7C U8A G9U U10A U11G C12U C13G	1.16
U7C U8A G9U U10G U11G C12U C13A	1.11
U7C U8A G9U U10G U11G C12U C13G	1.15
U7C U8A G9U U10G U11G C12U C13U	1.3
U7C U8A G9U U11C C12U	1.17
